A short description of the series: label from the status in PepcDB records.
For “MESSPLISAGLPIALFIIMIGIGMTLTLRDFRQVAVYPKGMIVGTFAQILLMPVVAFGLAWLFGVSPAIAVGLVIIAACPGGTTSNLFVLLARGNIALSIVLTVSASLITILTLPLFTNMALQHFMGTEESISLPVGKTIAMLVVIVLLPVAIGMLVRTRKPELARKAESLVSIFGGIVLAVLVVALLYGVRDQMWDLLKQAGPSTIALNVAGIALGLLAGRVAGLTQRESLAVAVELGVKNGTIGLMVTLTLLESSTMSIPAAVYGVLMFPIGFLLAMYGRKVIPKSNVAHAAGEA”, the protein production entry is on record as “failed”.

As for “MAVQLLENWLLKEQEKIQTKYRHLNHISVVEPNILFIGDSIVEYYPLQELFGTSKTIVNRGIRGYQTGLLLENLDAHLYGGAVDKIFLLIGTNDIGKDVPVNEALNNLEAIIQSVARDYPLTEIKLLSILPVNEREEYQQAVYIRSNEKIQNWNQAYQELASAYMQVEFVPVFDCLTDQAGQLKKEYTTDGLHLSIAGYQALSKSLKDYLY”, the protein production entry is given as “not failed”.

In the case of “MPNIGIIGAGIGGLQLGLQLRQHDIPVTIYTDKTANQIAGGRLLNSVAHHGPTLERERLLGVHFWPVEEYGYSCHHHYLGGDQPMSFRGDFTNWSSAIDYRLYLPKLSEAFQERGGNLEVRMLQADDIEPIAARHDLIVVAAGRGAFASMFPRRPDLSPYDTPQRALSVGIYRGIAESDPRGVTISTSPGHGDLLEIPMYTEDGFLTALLFENIPGGDLEILAKMSYDDDPQAFNRTVLDKLARHHPQTFERVDHTQFGLHRSIDLLQGALVPTVREDYAKLPGGKFALAIGDVHTVVDPLLGQGANSASHSAWVTGEAIVEDLGFDEMFCTRVARRRADVVLGAAQWTNLMLAPPAEHVLRLFEAMNANKAVADEFTHNFDHPDRQWQILATAERTNAFLARHGIESAAALAV”, the protein production result is “failed”.

“MATSGFKHLVVVKFKEDTKVDEILKGLENLVSQIDTVKSFEWGEDKESHDMLRQGFTHAFSMTFENKDGYVAFTSHPLHVEFSAAFTAVIDKIVLLDFPVAAVKSSVVATP”: the protein production result is listed as “not failed”.

With “MIGKRFFQTTSKKIAFAFDIDGVLFRGKKPIAGASDALKLLNRNKIPYILLTNGGGFSERARTEFISSKLDVDVSPLQIIQSHTPYKSLVNKYSRILAVGTPSVRGVAEGYGFQDVVHQTDIVRYNRDIAPFSGLSDEQVMEYSRDIPDLTTKKFDAVLVFNDPHDWAADIQIISDAINSENGMLNTLRNEKSGKPSIPIYFSNQDLLWANPYKLNRFGQGAFRLLVRRLYLELNGEPLQDYTLGKPTKLTYDFAHHVLIDWEKRLSGKIGQSVKQKLPLLGTKPSTSPFHAVFMVGDNPASDIIGAQNYGWNSCLVKTGVYNEGDDLKECKPTLIVNDVFDAVTKTLEKYA”, the protein production result was “not failed”.

With “MNESGFLIDTHAHIDGHDFAADFDAMLSRAWEAGLSHIVTVGADLESSRAAVALAGRHERIWCAVGIHPHDAGRVTDRCYDEIRTLAQGNPKVAAIGEIGLDFFRDRSPRDEQEQVFRRFIRLARELALPIVVHDRDAHERVMAILREEKARDVGGVLHCFSGDLAMARECVDMGFLISIPGTVTYPSNEALREVVRGVKIEHLLVETDCPYLTPVPHRGKRNEPAYVRLTAEKVAELKGLSLEDVGRITSLNARRLFGIGESDQAARIAYRIRNSLYLNITNRCSNRCSFCAKFDDYTVKGHHLRLDHEPDSAEVLAAVGEPGPVDEIVFCGFGEPMLRLDLIVEVARELKKRGFRIRINTDGQANLVHGRNVLPELQGLVDCISVSLNAADADTYARLCNTPFGTNGFNGICRFLEEARLYIPTVVATAVTVPGIDVAAVRALAESLGVEFREREFAEVGLEHHHHHH”, the protein production entry is “not failed”.

On to “APAEIFNVVKYPAKLGDMYAYLTPPPANKKNKLPAVIWLNGGYGGIGGDDYFWTPQPVENDQTGATFRDPNMVLMIPSFRGENTNPGRYEMFYGELEDLDSAREYLASLPYVDPKRIYVVGHSTGGTRALLASEYSDKFRAIFSLGGIPDLKLRTEGRMMVELPFDKNNEEEFNVRSVYRYIKSIKTPTFYFEGHDYFWDEFNELRVVAMEHDIPLKIYNIKNGDHFNIIVPVSQLIKEKILQDTDTNKESNIRFTNEEIKWINKMVK”, for which the protein production entry is given as “failed”.

For the sequence “GRARVKVEGVFYNPRMRFCRDLDMLVFATMDSKEYFDALSASGIRGIRAALEAGKKAVFNDVSPKAVKVIEENLRENGVSGEVINGDAAAVMRQRAFEHIDIDPFGSPAPFMDSACFSAKRYLSVTATDTAALCGSATNSGLKKYGAFAVKTDVYHEVGLRMLIGFVVREATKYEKALFPLISWVREHYYRVHFKIKKSTAMSAKVYEKMGYLAYCSTCLRKKVLGMGEGAERCECGGKFSLIGPIWLGELKQRDFAEKVAEKAEGKLRAFLEKILAEIDAPTAYSLPALAKIHSLTLPPTDVVVEELKKLGYEASRTHYCGFCVKTDADRDVVVKILRSRK”, the protein production result is listed as “failed”.

As to “PSKKYVVDIWSDFVCPWCWIAKRRFENALNRSGMQDDVQVNVRAYRLAANQAPEPMIGALKRKLGNPASADSMMSTVSKYGRADGLDYRFDTMMFGDTADAHILVKAVEDTAVKKRLVEALYEQSTSHGRSLFDRSSLEAIAREVGVSDESIQLAWSSVELRNEMKDDESFAAQLGSGVPLFVFDSSFSVSGAQPDAVFLEALNKMVANSNPE”, the protein production result was “not failed”.

For the sequence “MLVPLPVREIMRTPVKTISPSAPVIEAAQRLRDEDIGSLVVEDDGSCVGIITESDIVAVTAAEGDTRALSVGDVMAETLVTVAPDADMQAAVDRLQTNNIKKLPVVEDGSLVGIVTTTDLSDYIPHLSRAVRMSNDQSQQKRFTRPDTLYENEDWTFESYGTADGIDVGDHVEFSKTISKADVEAFAEASGDTNRLHLDATFADGTRFGRRIVHGTLVSGIISAALARLPGLTIYLSQELSYQGPVDIDEEVTARCEVVERIQDNRFRLATAVDDSEGNCVIEGDAVVISDPIPDTA”, the protein production entry is recorded as “failed”.

“MTHASILISVIIPAYNAAKFLPDAIASVEKQTFTDWELLIINDGSTDDTIEVVREHQKTSDCIYLINQTNQGVSAARNQGVAHSQGQIIAFLDADDQWLPDKLSQHWQHFQSNSRLGVSFAQVEILDQAGEPTGQVSTSRLNDLKPEYFLSENPTTTTSNWVIRKEVFTQVGGFCLDMSYSEDLEWLLRVSSTTDWQIQGINQVLTRYRTSSSGLSSNLYYMEAGWKQLVNRARIYAPQLVHNHFALAQAVHLRYLARRAFRLKLPARVGVDFITRALISDWRLLFHQPQRTFFTLLAVFGALVMERVFGLNTHRGSTAKAEPFRGSIP”: the protein production result is recorded as “failed”.

“MSGVKIAFIRHHDLWIKVDGKEKQLTKGEYITGPKWSYDGEWLAYVKGEKQNTLELYRLKDGKKVTPFHSEVSNYQWSPTENIIAFIFTGTLHTFKVEKKNADFENVSAGVGDYAWYPNGKKFLVSSEAHLLPTGWTGAQLYEVQKDAHMNPHKMKHLYALPNEHDDFLALVASGFQWSPDQKWISFLAVPTASWSADSNTLCLVRADGSRFEKVDQMLLNTQWFKWAPANNILAYIEGSGRVALENKHLKVKELPALQQNTFTPKGYVDWDFTWKNDNVIIVSRAKEAGIETPPEKRPLPSLYEIDSTSDEQHRITKPPHRQGDYHPLFMNKSNQLIWIRSDRKKADVWLAHKDGKHEMKWIENIDVPLEHHHHHH”: the protein production result is “failed”.

Consider “LFTHRPIHTHTVTFSGGGENSAMYASIGFYDDRGWTLADHVKRITANIKNSFYWNEDKIKATISAQGNLRNQNSPGTIPQRRNTVIGTFERDFDINPFSYALSTSRTLRPHNADGKREFYRNNWAPFNILNEYENNYLKTEVLDLKLQGELSYRLNDHIEVKGLAMVRHAVTKSSHFIAEASNVVQAFRANETPYVARENIYLLKNKDDPMQLPGVALTHGGIFNKTETSLRSYLGRLALDYNRQLSEHNIRAFGFTEIRYADRSMNPFQGYGIQYDRGNQVFSNPLIFEKLANEGDTYFSLTERYERGVTLSGSATYGYAEKYIFNGVFNYEGANTAGKYSRSRWLPTWNIGAKWNLDQEKFMRKHTTISRLALRTSYGLTAKMNEQAVNSTTVFKHVMVNRTLLKDRENALRILHLENRDLTWEKMYELNFGLELGLFGNRISATFDVYQRNSFDLIDLIRTSGVGGQYYKYANFGDMRTRGVELAIQTQNILTDKFSWSTTVT”, for which the protein production result is “failed”.

As to “MPDITISWVAAILGLVVAIVLILKKFNPVYSLFFGAIVGCLIGGASLSDTVAVLLNGTQSIMGTAIRVLAAGMLAGVMMESGAAESIANAIVQKLGEKKAILSLALSTMVITAVGVFIPVAVLIVAPIALSVGKSTGISKLSLLIALSGGGKAGNIISPNPNTIAAANGFDLPLSDVMIAGFIPAVFGLITAVVLANIMRNKGSMVKETDLVEEQTKELLPLKKALIAPVLAIVLLLLNPIGAVLNISFIKSLNIDALYILPFASVVGTIAIGQTKQLAFYASSGLKRVTDTVLILIGAGAIAGLISVSDLSTQIVHLISVMGISGTFLAPISGILMGLAVGSTSTAVILATGSFGPAILDMGTSSLSAAVMVHTGATVIDSVPQGNYFHITAQSMNMTIKERIRVIPYEMCVGGVMTIVATILYGFILN”, the protein production entry is on record as “failed”.

Consider “GTLQDGAVDWGVRRTFREYVTGDIAHGEWALTAGAQDGGALFRFPGGEGTYEDGDLNAAFRGTVRFTGAHGLDLSLGNVRTVVEDGRGTLYADVTSPDVKEAKVPLVTFTAGEPKPAGGLVKVTEAPAKLTARGAKAFGGMYRAGTEMDPVSLAVAL”, for which the protein production entry is “failed”.

“MNRQLLLDVLPAPAPALNNYIAGPNGQALAAAHALTAGRAIYLWGPAGCGRTHLLRGLSARPEAIYIDAARAAQSLRELAEADSTAPMPRLVAVDDVHRMDDARQAGLFALYNRWRESAATGRAFALAVSGDRAPMSLPLREDLRTRLGWDLVFRLDPLSDADKLAALTAQAAERGLQLAPEVINWMLTHHERDIRKLAALLDALDRYSLATGRPITIPLLRAMLADPHSQATLEHHHHHH”: the protein production result is “not failed”.

Consider “MHHQRKTHVDNNIAAVELAKAYRLLNHGPTVLVSARSQGIDNVMAAAWCCALDFAPPKLTVVLDKMTKTREFIEQSGMFVIQVPTVAQLQLTHRVGSQSLADDANKLLNCGVELFEMAGHDLPFVAGCSAWLACKLIPEPNNQLQYDLFIAEVIGAWADTQVFNHGHWHFDTAPADKRSLHYIAGGQFYAIGESFNAD”, for which the protein production result is reported as “not failed”.

As for “MLMSFILLISTSMILISVFSYVLIALIVLGIVLSLISLLSPRVSYVSSVYLIGLTVYLNPGFSLTQSLINTVPILGEINMLSGLLKTPVTSIISSLFSLALLNLGIKGYEIYLSKHADIVKLDSIIFSQHGLPKQANWNIVVNSEVKLLKSNEKLILSNTPEAKYELCPTLVDHKYYVPNKVTGLAFEGEVIRINYSPVDGVPYEKFRNCFTVFEVEGLPPDTSFVIEINGASLKLKDRKFAKLSLEPLYWKVNEIRISREDEEEIYEPDIKEGLTFRGGTVKINFRRKVIRYKTAKIPSIENWDPGIWVGQEVYGYRVIEVIGLGGNGYVMKVEKNGLLYAMKVLSVNKFTNSLEHFDNLLKESENLEKLSKDPRLVSIYGSFVDKNNIQSALAGDYTSYYKYPPAIIMEFMEGGTLFDLISRVDLVQSKYWQYIVKLVIKEIAKALTFLHKRGYVHLDVKPQNIFLKEKINGEPEVVYKILSSTPGIIKLGDLGSAVRVGEKITQATPAYSPPEQIEAVITGKGAQPSMDNYALGVTLYKLLTMKNLDYVNYLDKAFDEYIKGDPSIAMKYINMAKMSMVNFKPKLPHNTLPELANVVQGTLVVDPKRRLTSYDIVKILEG”, the protein production result is given as “failed”.

On to “GRGAFGVVCKAKWRAKDVAIKQIESESERKAFIVELRQLSRVNHPNIVKLYGACLNPVCLVMEYAEGGSLYNVLHGAEPLPYYTAAHAMSWCLQCSQGVAYLHSMQPKALIHRDLKPPNLLLVAGGTVLKICDFGTACDIQTHMTNNKGSAAWMAPEVFEGSNYSEKCDVFSWGIILWEVITRRKPFDEIGGPAFRIMWAVHNGTRPPLIKNLPKPIESLMTRCWSKDPSQRPSMEEIVKIMTHLMRYFPGADEPLQYPCQYSDEGQSNSATSTGSFMDIASTNTSNKSDTNMEQVPATNDTIKRLESKLLKNQAKQQ”, for which the protein production entry is “failed”.

(Values after a protein production outcome set (Wang et al. 2014).)
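Note: failed if final PepcDB status was selected cloned or expressed and not failed if soluble or beyond.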
